In test [1] the target is T1, Human ILT3 (LILRB4) extracellular domain with C-terminal His Tag (human, UniProt Q8NHJ6 22-259).
T1 construct: the claims count residues 1-238 as the extracellular domain; also called human ILT3-His; ILT3_H
Description: SPR (Biacore), human ILT3-His. The method, then:
(§1) The binding kinetics and affinities of anti-human ILT3 clones for human or rhesus ILT3-His tagged recombinant protein were measured by surface plasmon resonance using a Biacore™ T200 system (GE Healthcare, Piscataway, NJ). HBS-EP+ buffer (BR-1006-69) was used as the running buffer. Anti-human Fc antibody (Human Fc Capture Kit, BR100839, GE Healthcare) was immobilized via amine coupling chemistry in all four flow cells on a Series S CM5 sensor chip (BR100530 or 29149603, GE Healthcare) following manufacturer instructions. Flow cell 1 was used as reference for background subtraction and was not used for capture. […] Following each injection cycle, all four flow cells were regenerated using 30 second injection of 3M MgCl₂ solution at a flow rate of 10 μL/minute. Reference subtracted sensorgrams were fit to a 1:1 Langmuir Binding Model in the Biacore™ T200 Evaluation Software (Version 2.0) to determine the association (ka) and dissociation (kd) rate constants and the equilibrium dissociation constant KD (=kd/ka).
(SPR reads the build-up and loss of mass on a sensor chip optically.)

For test [2], the target named is T2, Rhesus monkey ILT3 expressed on CHO-K1 cells (rhesus monkey (Macaca mulatta)).
T2 construct: whole, on cells; also called rhILT3; CHO-rhesus ILT3
The test can be described thus: cELISA, CHO rhesus ILT3 cells.

Test [3] addresses T3, rhesus ILT3-His tagged recombinant protein (rhesus monkey (Macaca mulatta)).
T3 construct: also called ILT3_MM; not shown: His tag
T3 chain: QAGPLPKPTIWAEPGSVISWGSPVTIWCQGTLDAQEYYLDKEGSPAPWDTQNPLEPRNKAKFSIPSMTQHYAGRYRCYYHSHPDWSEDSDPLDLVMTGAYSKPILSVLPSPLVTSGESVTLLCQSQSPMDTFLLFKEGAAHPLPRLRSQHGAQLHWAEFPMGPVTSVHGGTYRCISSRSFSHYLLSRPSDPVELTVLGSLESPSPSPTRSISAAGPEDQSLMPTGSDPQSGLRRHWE
Description: SPR (Biacore), rhesus ILT3-His. The method, then:
as §1

The target of test [4] is T4, human ILT3 expressed on cells (human, UniProt Q8NHJ6 22-448).
T4 construct: whole, on cells; also called huILT3; LILRB4
The test can be described thus: cELISA, CHO human ILT3 cells.

From patent publication US20260167718A1 (Merck Sharp & Dohme, published 2026) come the findings set out here.

B1: Humanized anti-ILT3 mAb (52B8 VH1 M64L/VL2) IgG4 S228P/Kappa (antibody, V domains shown)
VH: EVQLVESGGGLVQPGGSLRLSCAASGFTFSNYGMSWVRQAPGKGLEWVATISGGGDYTNYPDSLRGRFTISRDNAKNSLYLQMNSLRAEDTAVYYCGRRLWFRSLYYAMDYWGQGTLVTVSS
VL: DIVLTQSPDSLAVSLGERATINCRASEKVDSFGNSFMHWYQQKPGQPPKLLIYLTSNLDSGVPDRFSGSGSGTDFTLTISSLQAEDVAVYYCQQNNEDPYTFGQGTKLEIKR
notes: also called mAb 18
For orientation: Kd means the equilibrium constant for the complex coming apart. By EC50 is commonly meant the concentration that produces a half-maximal response. Turning to B1, the values for the Kd in test [1] and in test [3] were 1 nM and 22 nM, respectively. For the same molecule, the half-maximal effective concentration (EC50) was found to be 0.137 µg/mL in test [2] and 0.079 µg/mL in test [4].

B2: Humanized anti-ILT3 mAb (52B8 VH2 M64L/VL2) IgG4 S228P/Kappa (antibody, V domains shown)
VH: EVQLVESGGGLVQPGGSLRLSCAASGFTFSNYGMSWVRQAPGKGLEWVATISGGGDYTNYPDSLRGRFTISRDNAKNSLYLQMNSLKAEDTAVYYCGRRLWFRSLYYAMDYWGQGTLVTVSS
VL: DIVLTQSPDSLAVSLGERATINCRASEKVDSFGNSFMHWYQQKPGQPPKLLIYLTSNLDSGVPDRFSGSGSGTDFTLTISSLQAEDVAVYYCQQNNEDPYTFGQGTKLEIKR
notes: also called mAb 22
On to B2, for which the results for the Kd in test [1] and in test [3] were 0.97 nM and 21 nM, respectively. Moreover, the EC50 in test [2] turned out to be 0.081 µg/mL; in test [4], 0.057 µg/mL.

B3: Humanized anti-ILT3 mAb (52B8 VH2 M64V/VL2) IgG4 S228P/Kappa (antibody, V domains shown)
VH: EVQLVESGGGLVQPGGSLRLSCAASGFTFSNYGMSWVRQAPGKGLEWVATISGGGDYTNYPDSVRGRFTISRDNAKNSLYLQMNSLKAEDTAVYYCGRRLWFRSLYYAMDYWGQGTLVTVSS
VL: DIVLTQSPDSLAVSLGERATINCRASEKVDSFGNSFMHWYQQKPGQPPKLLIYLTSNLDSGVPDRFSGSGSGTDFTLTISSLQAEDVAVYYCQQNNEDPYTFGQGTKLEIKR
notes: also called mAb 14
As to B3, the Kd in test [1] amounted to 1 nM; in test [3] it was 22 nM. In addition, the EC50 in test [2] was 0.126 µg/mL; in test [4] it was 0.077 µg/mL.

B4: Humanized anti-ILT3 mAb (52B8 VH2/VL3) IgG4 S228P/Kappa (antibody, V domains shown)
VH: EVQLVESGGGLVQPGGSLRLSCAASGFTFSNYGMSWVRQAPGKGLEWVATISGGGDYTNYPDSMRGRFTISRDNAKNSLYLQMNSLKAEDTAVYYCGRRLWFRSLYYAMDYWGQGTLVTVSS
VL: EIVLTQSPATLSLSPGERATLSCRASEKVDSFGNSFMHWYQQKPGQAPRLLIYLTSNLDSGVPARFSGSGSRTDFTLTISSLEPEDFAVYYCQQNNEDPYTFGQGTKLEIKR
notes: also called mAb 7
With B4, the figures for the Kd in test [1] and in test [3] were 0.96 nM and 26 nM, respectively.

B5: Humanized anti-ILT3 mAb (52B8 VH2 M64V/VL4) IgG4 S228P/Kappa (antibody, V domains shown)
VH: EVQLVESGGGLVQPGGSLRLSCAASGFTFSNYGMSWVRQAPGKGLEWVATISGGGDYTNYPDSVRGRFTISRDNAKNSLYLQMNSLKAEDTAVYYCGRRLWFRSLYYAMDYWGQGTLVTVSS
VL: EIVLTQSPATLSLSPGERATLSCRASEKVDSFGNSFMHWYQQKPGQAPRLLIYLTSNLDSGIPARFSGSGSGTDFTLTISSLEPEDFAVYYCQQNNEDPYTFGQGTKLEIKR
notes: also called mAb 16
Regarding B5, the Kd worked out at 1.4 nM in test [1] and 29 nM in test [3].

B6: Humanized anti-ILT3 mAb (52B8 VH2 M64L/VL1) IgG4 S228P/Kappa (antibody, V domains shown)
VH: EVQLVESGGGLVQPGGSLRLSCAASGFTFSNYGMSWVRQAPGKGLEWVATISGGGDYTNYPDSLRGRFTISRDNAKNSLYLQMNSLKAEDTAVYYCGRRLWFRSLYYAMDYWGQGTLVTVSS
VL: DIVLTQSPDSLAVSLGERATINCRASEKVDSFGNSFMHWYQQKPGQPPKLLIYLTSNLDSGVPDRFSGSGSRTDFTLTISSLQAEDVAVYYCQQNNEDPYTFGQGTKLEIKR
notes: also called mAb 21
For B6, the Kd in test [1] amounted to 0.88 nM; in test [3] it was 27 nM. Besides, the EC50 in test [2] came out at 0.112 µg/mL; in test [4], 0.079 µg/mL.

B7: Humanized anti-ILT3 mAb (52B8 VH2/VL4) IgG4 S228P/Kappa (antibody, V domains shown)
VH: EVQLVESGGGLVQPGGSLRLSCAASGFTFSNYGMSWVRQAPGKGLEWVATISGGGDYTNYPDSMRGRFTISRDNAKNSLYLQMNSLKAEDTAVYYCGRRLWFRSLYYAMDYWGQGTLVTVSS
VL: EIVLTQSPATLSLSPGERATLSCRASEKVDSFGNSFMHWYQQKPGQAPRLLIYLTSNLDSGIPARFSGSGSGTDFTLTISSLEPEDFAVYYCQQNNEDPYTFGQGTKLEIKR
notes: also called mAb 8
Regarding B7, the Kd in test [1] was determined as 1.3 nM; in test [3], 27 nM.

B8: Humanized anti-ILT3 mAb (52B8 VH2/VL2) IgG4 S228P/Kappa (antibody, V domains shown)
VH: EVQLVESGGGLVQPGGSLRLSCAASGFTFSNYGMSWVRQAPGKGLEWVATISGGGDYTNYPDSMRGRFTISRDNAKNSLYLQMNSLKAEDTAVYYCGRRLWFRSLYYAMDYWGQGTLVTVSS
VL: DIVLTQSPDSLAVSLGERATINCRASEKVDSFGNSFMHWYQQKPGQPPKLLIYLTSNLDSGVPDRFSGSGSGTDFTLTISSLQAEDVAVYYCQQNNEDPYTFGQGTKLEIKR
notes: also called mAb 6
As to B8, the dissociation constant (Kd) in test [1] is 1.1 nM; in test [3] it was 21 nM. Besides, the 50% effective concentration (EC50) came out at 0.118 µg/mL in test [2] and 0.1 µg/mL in test [4].

B9: Humanized anti-ILT3 mAb (52B8 VH1/VL2) IgG4 S228P/Kappa (antibody, V domains shown)
VH: EVQLVESGGGLVQPGGSLRLSCAASGFTFSNYGMSWVRQAPGKGLEWVATISGGGDYTNYPDSMRGRFTISRDNAKNSLYLQMNSLRAEDTAVYYCGRRLWFRSLYYAMDYWGQGTLVTVSS
VL: DIVLTQSPDSLAVSLGERATINCRASEKVDSFGNSFMHWYQQKPGQPPKLLIYLTSNLDSGVPDRFSGSGSGTDFTLTISSLQAEDVAVYYCQQNNEDPYTFGQGTKLEIKR
notes: also called mAb 2
Regarding B9, the Kd in test [1] came to 1.1 nM; in test [3] it was 20 nM. For the same molecule, the results for the EC50 in test [2] and in test [4] were 0.109 µg/mL and 0.7 µg/mL, respectively.

B10: Humanized anti-ILT3 mAb (52B8 VH1 M64V/VL5 N34Q) IgG4 S228P/Kappa (antibody, V domains shown)
VH: EVQLVESGGGLVQPGGSLRLSCAASGFTFSNYGMSWVRQAPGKGLEWVATISGGGDYTNYPDSVRGRFTISRDNAKNSLYLQMNSLRAEDTAVYYCGRRLWFRSLYYAMDYWGQGTLVTVSS
VL: DIQLTQSPSSLSASVGDRVTITCRASEKVDSFGQSFMHWYQQKPGKAPKLLIYLTSNLDSGVPSRFSGSGSGTDFTLTISSLQPEDFATYYCQQNNEDPYTFGQGTKLEIKR
notes: also called mAb 46; humanized 52B8
Turning to B10, the Kd in test [1] came to 0.77 nM; in test [3], 15 nM. For the same molecule, the EC50 was determined as 0.12 µg/mL in test [2] and 0.088 µg/mL in test [4].

B11: Chimeric anti-ILT3 52B8 mouse VH M64L/human IgG4 (S228P):mouse VL/human Kappa (antibody, V domains shown)
VH: EVQLVESGGDLVKPGGSLKLSCAASGFTFSNYGMSWVRQTPDRRLEWVATISGGGDYTNYPDSLRGRFTISRDNAKNTLYLQMSSLKSEDTAMYYCGRRLWFRSLYYAMDYWGQGTSVTVSS
VL: NIVLTQSPASLAVSLGQRATISCRASEKVDSFGNSFMHWYQQKPGQPPKLLIYLTSNLDSGVPARFSGSGSRTDFALTIDPVEADDAATYYCQQNNEDPYTFGGGTKLEIKR
notes: also called mAb 75
On to B11, for which the Kd in test [1] came to 0.41 nM; in test [3] it was 9.3 nM. In addition, the EC50 in test [2] came out at 0.137 µg/mL; in test [4] it was 0.086 µg/mL.

B12: Chimeric anti-ILT3 52B8 mouse VH M64V/human IgG4 (S228P):mouse VL/human Kappa (antibody, V domains shown)
VH: EVQLVESGGDLVKPGGSLKLSCAASGFTFSNYGMSWVRQTPDRRLEWVATISGGGDYTNYPDSVRGRFTISRDNAKNTLYLQMSSLKSEDTAMYYCGRRLWFRSLYYAMDYWGQGTSVTVSS
VL: NIVLTQSPASLAVSLGQRATISCRASEKVDSFGNSFMHWYQQKPGQPPKLLIYLTSNLDSGVPARFSGSGSRTDFALTIDPVEADDAATYYCQQNNEDPYTFGGGTKLEIKR
notes: also called mAb 74
Take B12: the equilibrium dissociation constant (Kd) in test [1] came to 0.44 nM; in test [3] it was 9.2 nM. Further, the EC50 in test [2] is 0.096 µg/mL; in test [4] it was 0.075 µg/mL.
